# Test results: IntAct's records for PubMed 10779557
# B1: Lymphokine-activated killer T-cell-originated protein kinase (Homo sapiens), Q96KB5 (parent)
# chain: MEGISNFKTPSKLSEKKKSVLCSTPTINIPASPFMQKLGFGTGVNVYLMKRSPRGLSHSPWAVKKINPICNDHYRSVYQKRLMDEAKILKSLHHPNIVGYRAFTEANDGSLCLAMEYGGEKSLNDLIEERYKASQDPFPAAIILKVALNMARGLKYLHQEKKLLHGDIKSSNVVIKGDFETIKICDVGVSLPLDENMTVTDPEACYIGTEPWKPKEAVEENGVITDKADIFAFGLTLWEMMTLSIPHINLSNDDDDEDKTFDESDFDDEAYYAALGTRPPINMEELDESYQKVIELFSVCTNEDPKDRPSAAHIVEALETDV
# Variants of: B1
# Settings: with dlg1_human DLG1, Q12959
# dlg1_human DLG1, Q12959, sequence (Q12959 whole entry, looked up): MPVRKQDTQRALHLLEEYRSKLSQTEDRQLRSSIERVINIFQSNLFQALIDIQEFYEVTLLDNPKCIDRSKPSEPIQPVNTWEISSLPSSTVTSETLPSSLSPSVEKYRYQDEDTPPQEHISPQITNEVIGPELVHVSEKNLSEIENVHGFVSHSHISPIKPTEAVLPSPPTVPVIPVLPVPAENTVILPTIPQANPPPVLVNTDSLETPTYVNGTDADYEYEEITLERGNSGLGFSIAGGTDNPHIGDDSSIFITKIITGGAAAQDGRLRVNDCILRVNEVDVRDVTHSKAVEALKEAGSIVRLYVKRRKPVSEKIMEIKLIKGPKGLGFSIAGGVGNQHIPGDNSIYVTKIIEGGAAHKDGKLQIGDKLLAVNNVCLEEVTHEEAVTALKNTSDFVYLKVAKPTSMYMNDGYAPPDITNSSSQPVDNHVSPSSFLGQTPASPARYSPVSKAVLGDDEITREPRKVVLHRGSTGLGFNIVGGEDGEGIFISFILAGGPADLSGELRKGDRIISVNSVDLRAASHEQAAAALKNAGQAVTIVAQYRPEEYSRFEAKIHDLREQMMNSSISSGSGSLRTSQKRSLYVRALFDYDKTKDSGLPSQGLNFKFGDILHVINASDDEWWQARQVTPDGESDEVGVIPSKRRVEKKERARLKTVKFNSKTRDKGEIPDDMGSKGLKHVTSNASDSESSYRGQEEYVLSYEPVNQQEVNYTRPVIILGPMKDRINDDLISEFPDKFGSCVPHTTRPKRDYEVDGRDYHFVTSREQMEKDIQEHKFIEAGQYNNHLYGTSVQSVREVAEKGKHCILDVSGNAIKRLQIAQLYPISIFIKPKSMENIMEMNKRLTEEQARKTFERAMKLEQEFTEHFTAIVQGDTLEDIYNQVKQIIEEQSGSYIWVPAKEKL
row,Variant,effect of a mutation on the interaction
1,MEGISNFKTPSKLSEKKKSVLCSTPTINIPASPFMQKLGFGTGVNVYLMKRSPRGLSHSPWAVKKINPICNDHYRSVYQKRLMDEAKILKSLHHPNIVGYRAFTEANDGSLCLAMEYGGEKSLNDLIEERYKASQDPFPAAIILKVALNMARGLKYLHQEKKLLHGDIKSSNVVIKGDFETIKICDVGVSLPLDENMTVTDPEACYIGTEPWKPKEAVEENGVITDKADIFAFGLTLWEMMTLSIPHINLSNDDDDEDKTFDESDFDDEAYYAALGTRPPINMEELDESYQKVIELFSVCTNEDPKDRPSAAHIVEALEADV [T320A],decreasing interaction
2,MEGISNFKTPSKLSEKKKSVLCSTPTINIPASPFMQKLGFGTGVNVYLMKRSPRGLSHSPWAVKKINPICNDHYRSVYQKRLMDEAKILKSLHHPNIVGYRAFTEANDGSLCLAMEYGGEKSLNDLIEERYKASQDPFPAAIILKVALNMARGLKYLHQEKKLLHGDIKSSNVVIKGDFETIKICDVGVSLPLDENMTVTDPEACYIGTEPWKPKEAVEENGVITDKADIFAFGLTLWEMMTLSIPHINLSNDDDDEDKTFDESDFDDEAYYAALGTRPPINMEELDESYQKVIELFSVCTNEDPKDRPSAAHIVEALETDA [V322A],disrupting interaction
